5 molecules from patent US20220064325A1 (ALLIGATOR BIOSCIENCE, published 2022) can be followed below.

In assay [1] the target is T1, human EpCAM expressed on cells (human, UniProt P16422 24-314).
T1 construct: whole, on cells; In the debris and exosome assays EpCAM stands on heat-shocked tumour cell debris or on exosomes; also called EpCAM on CHO-EpCAM, JEG, JAR, HT29, BxPC3, MCF7 and MB49-hEpCAM-OVA cells, their debris or exosomes
T1 sequence (looked up): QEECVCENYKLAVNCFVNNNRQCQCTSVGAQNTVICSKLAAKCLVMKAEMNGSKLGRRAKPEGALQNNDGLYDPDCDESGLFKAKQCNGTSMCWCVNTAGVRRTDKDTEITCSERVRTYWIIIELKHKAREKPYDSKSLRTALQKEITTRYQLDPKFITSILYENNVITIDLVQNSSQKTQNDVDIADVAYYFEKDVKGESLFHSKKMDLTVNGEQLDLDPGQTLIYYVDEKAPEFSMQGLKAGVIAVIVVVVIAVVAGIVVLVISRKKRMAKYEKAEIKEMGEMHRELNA
The assay is described as follows: flow cytometry, titration of biotinylated antibody on EpCAM-transfected CHO cells, detection with fluorochrome-conjugated streptavidin. The text has this:
FIG. 3. […] Binding of biotinylated antibodies was detected by flow cytometry using fluorochrome-conjugated streptavidin. Results are pooled from two replicates in one representative experiment of two.
The human EpCAM gene was cloned into pcDNA3.1, and the vector was subsequently stably transfected into CHO cells. Control CHO cells were stably transfected with and empty pcDNA3.1 vector. […] Binding of biotinylated antibodies was detected with fluorochrome-conjugated streptavidin and analysed using flow cytometry.
A general note: Flow cytometry measures light scatter and fluorescence of single cells or particles in a stream.

Assay [2] has as its target T2, human CD40 expressed on cells (human, UniProt P25942 21-277).
T2 construct: whole, on cells; also called CD40 on primary human B cells, monocytes, monocyte-derived DCs, Raji cells and hCD40tg mouse DCs
The assay is described as follows: flow cytometry, titration of biotinylated antibody on human PBMC gated with CD19, CD14, CD3 and CD56, detection with fluorochrome-conjugated streptavidin. The source says: FIG. 5. […] Binding of biotinylated antibodies to different cell populations was detected by flow cytometry using fluorochrome-conjugated streptavidin. Results are pooled from three donors in one representative experiment of two.
Binding of biotinylated antibodies was detected with fluorochrome-conjugated streptavidin and analysed using flow cytometry.

The target in assay [3] is T3, dimeric antigen EpCAM-Fc (Sino hEpCAM_Fc #10694-H02H) (human, UniProt P16422 24-265).
T3 construct: not shown: Fc part
T3 sequence (looked up): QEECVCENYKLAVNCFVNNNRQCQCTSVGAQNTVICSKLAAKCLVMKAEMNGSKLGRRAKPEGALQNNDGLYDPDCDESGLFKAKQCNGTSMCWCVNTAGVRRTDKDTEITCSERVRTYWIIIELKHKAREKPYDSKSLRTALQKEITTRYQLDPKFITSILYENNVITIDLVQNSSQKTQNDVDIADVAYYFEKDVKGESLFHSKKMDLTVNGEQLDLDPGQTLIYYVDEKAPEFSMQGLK
The assay is described as follows: BLI (Octet RED96), Assay 3: hEpCAM_Fc coupled to AR2G sensors, bsAb in solution, 1:1 fit. The method, then: (§1) Kinetic measurements were performed using the Octet RED96 platform (ForteBlo).
Antigen was coupled to Amine reactive Second generation sensors (Dip and Read Amine reactive Second-Generation (AR2G) Biosensors (Part no #18-5092 (tray)) at antigen concentrations of 0.4, 1.5, 0.25 or 0.5 μg/mL. BsAb (serially diluted % in 1× Kinetic buffer (ForteBio) with start concentrations of 20, 15, 10 or 25 nM) were analysed for binding to antigen-coupled sensors. The association was followed for 300 seconds and the dissociation in 1× Kinetic buffer for 300 seconds. Sensor tips were regenerated using 10 mM glycine, pH 2.2. Data generated were referenced by subtracting a parallel buffer blank, the baseline was aligned with the y-axis, inter-step correlation by alignment against dissociation was performed and the data were smoothed by a Savitzky-Golay filter in the data analysis software (v.9.0.0.14). The processed data were fitted using a 1:1 Langmuir binding model with X2 as a measurement of fitting accuracy.
In general terms: Biolayer interferometry detects binding as a change in optical thickness at a sensor tip.

The target of assay [4] is T3, dimeric antigen EpCAM-Fc (Sino …). The assay is described as follows: BLI (Octet RED96), Assay 1: bsAb on FAB2G sensors, dimeric EpCAM-Fc in solution, 1:1 fit. The method, then:
as §1
(§2) BsAb at 1.0 or 1.5 ug/ml where coupled to anti-human Fab-CH1 2nd generation (FAB2G) biosensors (Part no #18-5125 (tray)). Antigens were serially diluted % in 1× Kinetic buffer (ForteBio) to 100 nM, 50 nM, 25 nM, 12.5 nM, 6.25 nM, 3.125 nM, 1.56 nM or 0 nM. The association was followed for 300 seconds and the dissociation in 1× Kinetic buffer for 300 seconds. Sensor tips were regenerated using 10 mM glycine, pH 1.5. Data generated were referenced by subtracting a parallel buffer blank, the baseline was aligned with the y-axis, inter-step correlation by alignment against dissociation was performed and the data were smoothed by a Savitzky-Golay filter in the data analysis software (v.9.0.0.14). The processed data were fitted using a 1:1 Langmuir binding model with X2 as a measurement of fitting accuracy.

Assay [5] addresses T4, hEpCAM (R&D Systems #9277-EP), monomeric antigen EpCAM-his (human, UniProt P16422 24-265).
T4 construct: Bought reagent; also called human EpCAM; not shown: His tag
T4 sequence (looked up): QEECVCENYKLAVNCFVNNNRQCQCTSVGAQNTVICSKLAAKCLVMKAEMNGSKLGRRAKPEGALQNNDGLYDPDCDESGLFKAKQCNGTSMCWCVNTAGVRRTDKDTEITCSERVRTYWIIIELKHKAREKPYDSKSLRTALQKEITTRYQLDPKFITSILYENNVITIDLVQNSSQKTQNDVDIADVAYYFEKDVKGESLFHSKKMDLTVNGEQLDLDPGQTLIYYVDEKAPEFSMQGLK
The assay is described as follows: BLI (Octet RED96), Assay 2: bsAb on FAB2G sensors, monomeric EpCAM-his in solution, 1:1 fit. Here is the method: as §1, §2

The target in assay [6] is T4, hEpCAM (R&D Systems #9277-EP), …. The assay is described as follows: Mono ELISA (top frame): plate coated with 0.5 µg/mL hEpCAM, detection with HRP-labelled goat anti-human kappa light chain, luminescence. A general note: ELISA stands for enzyme-linked immunosorbent assay.

T2 sequence (P25942 21-277): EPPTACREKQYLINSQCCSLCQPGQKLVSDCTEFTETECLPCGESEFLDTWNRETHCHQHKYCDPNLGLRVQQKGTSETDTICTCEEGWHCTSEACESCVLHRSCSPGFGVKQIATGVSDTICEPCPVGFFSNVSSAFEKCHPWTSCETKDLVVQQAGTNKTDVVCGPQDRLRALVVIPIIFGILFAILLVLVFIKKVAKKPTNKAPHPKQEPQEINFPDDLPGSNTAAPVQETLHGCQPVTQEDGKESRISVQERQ

B1: 1132.m2 (antibody, V domains shown)
VH: EVQLLESGGGLVQPGGSLRLSCAASGFTFSSYAMSWVRQAPGKGLEWVSGIGSYGGGTYYADSVKGRFTISRDNSKNTLYLQMNSLRAEDTAVYYCARYVNFGMDYWGQGTLVTVSS
VL: DIQMTQSPSSLSASVGDRVTITCRASQSISSYLNWYQQKPGKAPKLLIYAASSLQSGVPSRFSGSGSGTDFTLTISSLQPEDFATYYCQQYGRNPPTFGQGTKLEIK
notes: Full chains are not tied to this name; also called LALA-mutated agonistic monoclonal CD40 antibody
Take B1: the binding result in assay [1] is “no binding (tested: about 300 nM)”; in assay [2] it was “binds”.

B2: 1132-3174.M (bispecific antibody, V domains shown)
VH 1: EVQLLESGGGLVQPGGSLRLSCAASGFTFSSYAMSWVRQAPGKGLEWVSGIGSYGGGTYYADSVKGRFTISRDNSKNTLYLQMNSLRAEDTAVYYCARYVNFGMDYWGQGTLVTVSS
VL 1: DIQMTQSPSSLSASVGDRVTITCRASQSISSYLNWYQQKPGKAPKLLIYAASSLQSGVPSRFSGSGSGTDFTLTISSLQPEDFATYYCQQYGRNPPTFGQGTKLEIK
VH 2: EVQLLEQSGAELVRPGTSVKISCKASGYAFTNYWLGWVKQRPGHGLEWIGDIFPGSGNIHYNEKFKGKATLTADKSSSTAYMQLSSLTFEDSAVYFCARLRNWDEPMDYWGQGTTVTVSS
VL 2: ELVMTQSPSSLTVTAGEKVTMSCKSSQSLLNSGNQKNYLTWYQQKPGQPPKLLIYWASTRESGVPDRFTGSGSGTDFTLTISSVQAEDLAVYYCQNDYSYPLTFGAGTKLEIK
notes: also called CD40-EpCAM bispecific antibody in the Morrison format
By Kd is commonly meant the equilibrium constant for the complex coming apart. A higher Kd goes with a looser complex. One may read the koff as a measure of how fast the partners let go of each other. Broadly, the kon is a measure of how fast the partners come together. Read a high kon as fast association. In assay [3], B2 displayed a Kd of 10 nM, a koff of 0.002 s⁻¹ and a kon of 200000 M⁻¹ s⁻¹. Also, in assay [4], the Kd was 0.5 nM, the koff stood at 8e-05 s⁻¹ and the kon was 200000 M⁻¹ s⁻¹. Besides, in assay [5], binding was put at a Kd of 500 nM, the koff was found to be 0.01 s⁻¹ and the kon came to 20000 M⁻¹ s⁻¹.

B3: 1132-3188.M (bispecific antibody, V domains shown)
VH 1: EVQLLESGGGLVQPGGSLRLSCAASGFTFSSYAMSWVRQAPGKGLEWVSGIGSYGGGTYYADSVKGRFTISRDNSKNTLYLQMNSLRAEDTAVYYCARYVNFGMDYWGQGTLVTVSS
VL 1: DIQMTQSPSSLSASVGDRVTITCRASQSISSYLNWYQQKPGKAPKLLIYAASSLQSGVPSRFSGSGSGTDFTLTISSLQPEDFATYYCQQYGRNPPTFGQGTKLEIK
VH 2: EVQLVQSGPGLVQPGGSVRISCAASGYTFTNYGMNWVKQAPGKGLEWMGWINTYTGESTYADSFKGRFTFSLDTSASAAYLQINSLRAEDTAVYYCARFAIKGDYWGQGTLLTVSS
VL 2: DIQMTQSPSSLSASVGDRVTITCRSTKSLLHSNGITYLYWYQQKPGKAPKLLIYQMSNLASGVPSRFSSSGSGTDFTLTISSLQPEDFATYYCAQNLEIPRTFGQGTKVELK
notes: also called CD40-EpCAM bispecific antibody in the Morrison format; 3188 = 4D5MOCB = BM1
As a reminder, the EC50 (read off the curve) is the concentration that produces a half-maximal response. B3: in assay [4], the Kd was under 0.001 nM, the koff is under 1e-07 s⁻¹ and the kon amounted to 300000 M⁻¹ s⁻¹. In assay [5], this molecule showed a Kd of 30 nM, a koff of 0.004 s⁻¹ and an on-rate (kon) of 100000 M⁻¹ s⁻¹. Also, the “EC50 (read off the curve)” value in assay [6] was about 0.4 nM.

B4: 1132-005025.M (bispecific antibody)
VH: EVQLLESGGGLVQPGGSLRLSCAASGFTFSSYAMSWVRQAPGKGLEWVSGIGSYGGGTYYADSVKGRFTISRDNSKNTLYLQMNSLRAEDTAVYYCARYVNFGMDYWGQGTLVTVSS
VL: DIQMTQSPSSLSASVGDRVTITCRASQSISSYLNWYQQKPGKAPKLLIYAASSLQSGVPSRFSGSGSGTDFTLTISSLQPEDFATYYCQQYGRNPPTFGQGTKLEIK
scFv: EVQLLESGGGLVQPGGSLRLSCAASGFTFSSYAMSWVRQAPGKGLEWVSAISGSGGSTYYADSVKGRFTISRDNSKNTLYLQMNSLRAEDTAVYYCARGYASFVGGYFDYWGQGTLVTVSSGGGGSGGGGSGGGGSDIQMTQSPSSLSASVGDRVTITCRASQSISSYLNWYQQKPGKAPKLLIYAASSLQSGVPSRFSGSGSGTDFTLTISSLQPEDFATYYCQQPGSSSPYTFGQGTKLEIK
notes: as for B2
In the case of B4, in assay [4], binding was put at a Kd of 4 nM, the koff turned out to be 0.001 s⁻¹ and the kon stood at 300000 M⁻¹ s⁻¹. In assay [5], the Kd was 300 nM, the koff came to 0.01 s⁻¹ and the kon came out at 30000 M⁻¹ s⁻¹. The “EC50 (read off the curve)” value in assay [6] is about 0.5 nM.

B5: 1132-005038.M (bispecific antibody)
VH: EVQLLESGGGLVQPGGSLRLSCAASGFTFSSYAMSWVRQAPGKGLEWVSGIGSYGGGTYYADSVKGRFTISRDNSKNTLYLQMNSLRAEDTAVYYCARYVNFGMDYWGQGTLVTVSS
VL: DIQMTQSPSSLSASVGDRVTITCRASQSISSYLNWYQQKPGKAPKLLIYAASSLQSGVPSRFSGSGSGTDFTLTISSLQPEDFATYYCQQYGRNPPTFGQGTKLEIK
scFv: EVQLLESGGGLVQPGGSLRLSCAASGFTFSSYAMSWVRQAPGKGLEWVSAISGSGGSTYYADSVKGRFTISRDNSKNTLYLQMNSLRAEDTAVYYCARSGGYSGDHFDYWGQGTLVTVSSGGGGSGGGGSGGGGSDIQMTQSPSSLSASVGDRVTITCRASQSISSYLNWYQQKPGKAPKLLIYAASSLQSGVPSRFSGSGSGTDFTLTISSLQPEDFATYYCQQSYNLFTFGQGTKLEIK
notes: as for B2
On to B5, for which, in assay [4], binding was characterised by a dissociation constant (Kd) of 6 nM, the koff was 0.002 s⁻¹ and the kon was found to be 300000 M⁻¹ s⁻¹. For the same molecule, in assay [5], the Kd worked out at 1000 nM, the off-rate constant (koff) came out at 0.01 s⁻¹ and the kon was 8000 M⁻¹ s⁻¹. Also, the “EC50 (read off the curve)” value in assay [6] is about 1 nM.
